In one experiment the target is T1, Control (BSA) (Bos taurus, UniProt P02769).
T1 construct: coated as control protein; also called BSA protein
Description: ELISA, 5 ug/ml scFv on coated Control (BSA), anti-HA-HRP. Here is the method: (§1) By using the produced scFv protein, the binding affinity to human/mouse c-Met extracellular domain+Fc protein was confirmed through ELISA. Human/mouse c-Met coated on a 96-well plate were treated with 5 μg/ml of scFv proteins (1F12, 2A01, 2C03, and 2D05), followed by binding at room temperature for 1 hour. After that, the plate was washed three times with 0.1% TBST solution, and then treated with anti-HA-HRP antibody for 1 hour, to detect the scFv proteins that bind to c-Met. After that, the plate was washed three times, and then treated with 10 μl of TMB substrate, followed by standing for 5 minutes. The reaction was stopped by using sulfuric acid solution, and then the absorbance was determined by ELISA reader. As a result, it was verified that each scFv protein had significant binding affinity to human and mouse c-Met proteins as compared with the control group (IgG, BSA) (FIG. 5A). In addition, after the cells were treated with 500 ng/ml of each scFv protein using human c-Met protein to which Fc region was not bound, the same ELISA assay was conducted.
A general note: ELISA stands for enzyme-linked immunosorbent assay.

Experiment [1] addresses c-Met protein (species and construct not stated). The experiment is described as follows: SPR, Biacore T100, c-Met amine-coupled on CM5 chip, scFv as analyte. The text has this:
For the confirmation of more accurate binding affinity (coupling constant), the binding affinity of respective clones to c-Met was verified through surface plasmon resonance analysis. Respective antibody fragments were expressed in the host E. coli, followed by purification, and then dialyzed with PBS solution. Biacore T100 (GE healthcare) was used for the analysis. The c-Met protein was fixed to a dextran medium through an amine coupling reaction in the CM5 sensor chip. […] Based on these values, kinetic analysis was conducted through the BIA-evaluation program. As a result, the KD values of the 1F12 and 2A01 clones were measured to be 6⁻⁹×10⁻⁸ M and the Kd value of 2C03 was verified to be 10⁻⁷ M (Table 4).

In experiment [2] the target is T2, mouse c-Met-Fc protein (mouse c-Met extracellular domain + Fc) (mouse, UniProt P16056 25-931).
T2 construct: extracellular domain; not shown: Fc region of IgG
The experiment is described as follows: ELISA, periplasmic scFv-pIII extract on coated mouse c-Met-Fc, anti-HA-HRP, OD450 as ratio to control coat (BSA, IgG). Here is the method:
After a total of six rounds of panning with mouse/human c-Met were finished, the phage particles collected from the final round of panning were confirmed as colonies in the medium through infection of host cells. These colonies were taken and inoculated in a 96 well plate containing 200 μl of SB/ampicillin media and then cultured (37° C., within 3 hours). After that, for the induction of scFv-pIII protein expression, 1 mM final concentration IPTG was added to each well, followed by culturing overnight at 30° C. After that, the cultured plate was centrifuged to discard the supernatant. Then, for the collection of periplasmic fractions from the cultured cells in each well, the culture plate was treated with 40 μl of TES solution (20% w/v sucrose, 50 mM Tris, 1 mM EDTA, pH 8.0) maintained at 4° C., and then kept to stand at 4° C. for 30 minutes, so that the cells were lysed. After that, the cells were treated with 60 μl of 0.2×TES solution, and then kept to stand for 30 minutes. Finally, the plate was centrifuged and the supernatant was collected, thereby producing scFv-pIII protein on a small scale.
At the same time, a 96 well plate coated with human or mouse c-Met-Fc protein was prepared, and then 25 μl of aliquot was taken from the collected periplasmic fractions and added to each well, followed by binding for 1 hour. Then, after three or four times of washing procedures were performed using TBST, anti-HA-HRP antibody was added, followed by binding for 1 hour. The plate was again washed, followed by induction of a color development reaction (TMB substrate), and then the values of color development were measured at O.D. 450 nm. […] Since antibody in which c-Met extracellular domain binds to Fc region of IgG was used at the time of the panning, commercialized antibody (Erbitux) or BSA protein was used as a control group in order to exclude the phage particles that bind to Fc region.

The target in experiment [3] is T3, human c-Met-Fc protein (human c-Met extracellular domain + Fc) (human, UniProt P08581 25-932).
T3 construct: extracellular domain; also called c-Met extracellular domain+Fc protein; not shown: Fc region of IgG
The experiment is described as follows: ELISA, scFv titrated 2-fold from 500 ng/ml on coated human c-Met, anti-HA-HRP, no HGF. Here is the method:
as §1, with “Human/mouse c-Met coated on a 96-well plate were treated with 5 μg/ml of scFv proteins (1F12, 2A01, 2C03, and 2D05), followed by binding at room temperature for 1 hour.” left out
For the verification of whether the selected scFv proteins have competitive binding affinity with the hepatocyte growth factor, which is the ligand of c-Met, the ligand competitive ELISA experiment was conducted. As in examples 2 and 4, the coated human c-Met was prepared, and respective wells were treated with samples in which each scFv protein was diluted at a 2-fold dilution from 500 ng/ml to about 1 ng/ml. After the treatment, the experiment procedure was conducted as in Example 4.

From patent publication US20140370022A1 (SAMSUNG LIFE PUBLIC WELFARE FOUNDATION, published 2014) come the findings set out here.

The term Kd denotes the concentration at which binding is half-saturated. What is called koff is a measure of how fast the partners let go of each other. The kon is a measure of how fast the partners come together. The low end stands for slow association, the high end for fast association. The EC50 (read off the curve) is the concentration that produces a half-maximal response.

Sequence of c-Met protein (species and construct not stated) (P08581 whole entry, the tested form may be a part): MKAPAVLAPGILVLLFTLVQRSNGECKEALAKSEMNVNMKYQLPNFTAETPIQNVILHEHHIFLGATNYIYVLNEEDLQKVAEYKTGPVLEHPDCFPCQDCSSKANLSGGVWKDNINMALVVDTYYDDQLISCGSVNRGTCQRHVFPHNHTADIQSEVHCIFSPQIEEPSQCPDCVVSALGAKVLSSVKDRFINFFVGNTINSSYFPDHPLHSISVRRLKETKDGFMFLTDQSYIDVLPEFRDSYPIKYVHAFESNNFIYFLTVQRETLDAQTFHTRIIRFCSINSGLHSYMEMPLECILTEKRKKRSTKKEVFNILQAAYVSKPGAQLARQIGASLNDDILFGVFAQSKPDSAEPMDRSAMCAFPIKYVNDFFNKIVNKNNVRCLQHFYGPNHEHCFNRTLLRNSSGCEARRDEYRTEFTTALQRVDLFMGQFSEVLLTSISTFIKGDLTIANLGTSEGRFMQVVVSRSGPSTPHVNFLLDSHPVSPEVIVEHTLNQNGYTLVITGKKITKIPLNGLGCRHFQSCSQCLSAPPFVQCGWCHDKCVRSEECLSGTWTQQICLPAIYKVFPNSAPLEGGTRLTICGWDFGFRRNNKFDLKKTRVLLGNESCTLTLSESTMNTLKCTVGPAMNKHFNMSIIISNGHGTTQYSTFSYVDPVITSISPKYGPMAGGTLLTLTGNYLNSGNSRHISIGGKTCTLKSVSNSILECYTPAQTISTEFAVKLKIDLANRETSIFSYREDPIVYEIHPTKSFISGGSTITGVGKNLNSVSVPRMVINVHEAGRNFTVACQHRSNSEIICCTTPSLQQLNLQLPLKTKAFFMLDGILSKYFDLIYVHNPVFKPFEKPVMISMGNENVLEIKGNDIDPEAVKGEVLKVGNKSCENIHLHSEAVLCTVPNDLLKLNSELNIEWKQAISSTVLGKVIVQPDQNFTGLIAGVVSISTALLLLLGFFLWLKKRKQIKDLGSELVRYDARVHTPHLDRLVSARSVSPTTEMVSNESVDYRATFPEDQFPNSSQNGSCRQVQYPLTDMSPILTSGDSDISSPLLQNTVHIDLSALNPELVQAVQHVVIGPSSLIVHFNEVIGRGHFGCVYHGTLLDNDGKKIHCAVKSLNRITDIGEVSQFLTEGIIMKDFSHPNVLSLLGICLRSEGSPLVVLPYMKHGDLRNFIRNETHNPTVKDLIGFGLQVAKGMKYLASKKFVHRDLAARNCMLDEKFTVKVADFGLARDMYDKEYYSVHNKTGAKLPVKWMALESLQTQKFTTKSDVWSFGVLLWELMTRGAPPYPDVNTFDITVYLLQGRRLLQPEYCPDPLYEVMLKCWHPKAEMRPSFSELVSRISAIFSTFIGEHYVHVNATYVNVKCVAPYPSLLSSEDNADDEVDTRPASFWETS
T1 sequence (P02769 25-607 limits assumed): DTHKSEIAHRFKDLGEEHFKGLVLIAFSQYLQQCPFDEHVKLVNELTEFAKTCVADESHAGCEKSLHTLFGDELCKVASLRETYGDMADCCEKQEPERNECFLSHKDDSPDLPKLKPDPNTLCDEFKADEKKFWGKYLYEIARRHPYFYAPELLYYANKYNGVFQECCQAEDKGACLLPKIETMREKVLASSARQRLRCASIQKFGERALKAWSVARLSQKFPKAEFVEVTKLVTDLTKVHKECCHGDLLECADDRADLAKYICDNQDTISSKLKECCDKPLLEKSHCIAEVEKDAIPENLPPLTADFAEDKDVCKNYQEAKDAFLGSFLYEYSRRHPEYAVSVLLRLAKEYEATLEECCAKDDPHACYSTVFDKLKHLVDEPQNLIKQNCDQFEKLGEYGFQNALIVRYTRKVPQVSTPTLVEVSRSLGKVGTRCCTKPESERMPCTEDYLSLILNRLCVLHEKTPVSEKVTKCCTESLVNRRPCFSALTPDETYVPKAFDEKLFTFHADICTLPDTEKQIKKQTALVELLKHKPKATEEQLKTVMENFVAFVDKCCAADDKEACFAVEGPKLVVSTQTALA
T2 sequence (P16056 25-931): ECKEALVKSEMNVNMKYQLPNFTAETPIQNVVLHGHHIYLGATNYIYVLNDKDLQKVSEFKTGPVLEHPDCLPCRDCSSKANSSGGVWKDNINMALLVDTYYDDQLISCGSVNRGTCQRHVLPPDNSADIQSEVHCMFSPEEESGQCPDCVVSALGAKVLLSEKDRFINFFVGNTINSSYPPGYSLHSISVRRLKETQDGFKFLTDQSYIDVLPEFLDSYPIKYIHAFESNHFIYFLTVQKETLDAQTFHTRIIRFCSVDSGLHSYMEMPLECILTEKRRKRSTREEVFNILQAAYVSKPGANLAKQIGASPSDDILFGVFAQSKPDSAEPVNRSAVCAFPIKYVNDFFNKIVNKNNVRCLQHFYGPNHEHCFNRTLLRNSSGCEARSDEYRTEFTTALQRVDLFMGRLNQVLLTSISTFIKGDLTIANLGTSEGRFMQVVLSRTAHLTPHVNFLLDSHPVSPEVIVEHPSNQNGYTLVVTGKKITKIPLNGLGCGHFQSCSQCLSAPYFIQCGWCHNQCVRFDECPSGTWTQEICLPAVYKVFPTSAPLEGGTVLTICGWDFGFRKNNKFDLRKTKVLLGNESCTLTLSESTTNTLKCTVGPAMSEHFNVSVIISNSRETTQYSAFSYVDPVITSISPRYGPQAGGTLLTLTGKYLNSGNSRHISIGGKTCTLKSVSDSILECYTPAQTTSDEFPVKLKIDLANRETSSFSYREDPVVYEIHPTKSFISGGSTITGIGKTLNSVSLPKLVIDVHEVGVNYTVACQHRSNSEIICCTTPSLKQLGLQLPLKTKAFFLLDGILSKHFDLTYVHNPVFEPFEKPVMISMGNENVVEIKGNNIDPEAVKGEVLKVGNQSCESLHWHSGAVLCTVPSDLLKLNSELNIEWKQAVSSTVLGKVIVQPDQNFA
T3 sequence (P08581 25-932): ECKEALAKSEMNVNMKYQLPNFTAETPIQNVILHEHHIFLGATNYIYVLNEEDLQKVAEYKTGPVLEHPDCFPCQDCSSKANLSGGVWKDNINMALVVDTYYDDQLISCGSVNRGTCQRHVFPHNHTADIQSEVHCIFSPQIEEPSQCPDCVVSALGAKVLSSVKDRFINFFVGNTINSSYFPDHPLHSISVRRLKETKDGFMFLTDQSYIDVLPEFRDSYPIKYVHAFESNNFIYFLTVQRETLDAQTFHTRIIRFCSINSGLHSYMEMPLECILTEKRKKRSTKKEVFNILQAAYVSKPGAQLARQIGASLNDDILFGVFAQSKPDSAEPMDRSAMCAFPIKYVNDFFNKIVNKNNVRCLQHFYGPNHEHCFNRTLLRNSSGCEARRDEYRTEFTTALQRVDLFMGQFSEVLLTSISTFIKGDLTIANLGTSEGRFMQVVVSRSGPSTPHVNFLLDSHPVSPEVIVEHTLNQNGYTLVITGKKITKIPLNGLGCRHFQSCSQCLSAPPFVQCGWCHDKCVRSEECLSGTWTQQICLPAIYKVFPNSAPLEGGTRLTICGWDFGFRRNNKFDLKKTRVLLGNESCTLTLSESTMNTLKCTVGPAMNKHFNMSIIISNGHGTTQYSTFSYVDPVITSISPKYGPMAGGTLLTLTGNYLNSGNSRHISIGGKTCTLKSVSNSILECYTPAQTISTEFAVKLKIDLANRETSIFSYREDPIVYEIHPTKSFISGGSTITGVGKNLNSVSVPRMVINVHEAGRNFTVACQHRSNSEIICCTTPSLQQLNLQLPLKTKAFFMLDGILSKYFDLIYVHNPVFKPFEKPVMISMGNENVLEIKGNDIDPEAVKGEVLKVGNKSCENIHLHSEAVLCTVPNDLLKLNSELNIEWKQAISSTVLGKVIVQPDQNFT

B1: 2C03 scFv antibody fragment (scFv)
scFv: EVQLLESGGGLVQPGGSLRLSCAASGFTFSNYAMSWVRQAPGKGLEWVSAISYDSGSIYYADSVKGRFTISRDNSKNTLYLQMNSLRAEDTAVYYCAKAARSCRNWSCSYANGMDVWGQGTLVTVSSGGGGSGGGGSGGGGSQSVLTQPPSASGTPGQRVTISCTGSSSNIGSNYVSWYRQLPGTAPKLLIYSDSNRPSGVPDRFSGSKSGTSASLAISGLRSEDEADYYCGSWDDSLSGYVFGGGTKLTVL
notes: Soluble scFv of about 28 kDa expressed in E. coli TOP10F' and purified over Ni-NTA; also called 2C03 clone; 2CO3
B1: the binding result with Control (BSA) is “no binding (tested: 5 ug/ml)”. In experiment [1], this molecule showed a Kd of 239 nM, a koff of 0.186 s⁻¹ and a kon of 776000 M⁻¹ s⁻¹. Moreover, in experiment [2], the binding result is “binds”.

B2: 1F12 scFv antibody fragment (scFv)
scFv: EVQLLESGGGLVQPGGSLRLSCAASGFTFSNYAMSWVRQAPGKGLEWVSGISYSGGSTYYADSVKGRFTISRDNSKNTLYLQMNSLRAEDTAVYYCAKASRSCQRPACSYANGMDVWGQGTLVTVSSGGGGSGGGGSGGGGSQSVLTQPPSASGTPGQRVTISCTGSSSNIGNNYVTWYQQLPGTAPKLLIYYNNHRPSGVPDRFSGSKSGTSASLAISGLQSEDEADYYCGSWDYSLSAYVFGGGTKLTVL
notes: Soluble scFv of about 28 kDa expressed in E. coli TOP10F' and purified over Ni-NTA; also called 1F12 clone
Consider B2, for which the binding result in the experiment with Control (BSA) is “no binding (tested: 5 ug/ml)”; in experiment [2], “binds”. The same molecule showed a Kd in experiment [1] of 93.3 nM. The “EC50 (read off the curve)” value in experiment [3] is approximately 0.04 µg/mL.

B3: 2A01 scFv antibody fragment (scFv)
scFv: EVQLLESGGGLVQTGGSLRLSCAASGFTFSSYDMSWVRRAPGKGLEWVSWISHGGSSISYADSVKGRFTISRDNSKNTLYLQMNSLRAEDTAVYYCAKDAYPIRQETFDYWGQGTLVTVSSGGGGSGGGGSGGGGSQSVLTQPPSASGTPGQRVTISCSGSSSNIGNNDVSWYQQLPGTAPKLLIYPDSQRPSGVPDRFSGSKSGTSASLAISGLRSEDEADYYCASWDSSLSGYVFGGGTKLTVL
notes: Soluble scFv of about 28 kDa expressed in E. coli TOP10F' and purified over Ni-NTA; also called 2A01 clone; 2A1
B3: the binding result with Control (BSA) was “no binding (tested: 5 ug/ml)”. Also, in experiment [1], binding was put at a Kd of 66 nM, the off-rate constant (koff) stood at 0.153 s⁻¹ and the kon turned out to be 2.32e+06 M⁻¹ s⁻¹. In addition, in experiment [2], the binding result is “binds”.
